Sequences and labels used below:
B1: KRT13 (parent)
chain: YGGGLGGGFGGGFAGGFVDFGACD
B2: EPB41L3 (parent)
chain: FRFAPNHTKELEDKVIELHKSHRG
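Further: lentivirally expressed fusions sorted by FACS into six bins by GFP to DsRed ratio, PSI derived from sequencing read proportions per bin multiplied by bin number.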

The variants in the first data set derive from B1. Kind of data set: protein stability index of a GFP-peptide fusion (GPS, HEK-293T) (PSI 1-6); higher = more stable. To be noted: c terminus: a fixed tail appended.
Regarding YGGGLGGGFGGGFANGFVDFGACD [G15N], the protein stability index turned out to be 2.55.

For the variant YGGGLGGGFGGGFAMGFVDFGACD [G15M], the protein stability index was determined as 4.08.

With YGGGLGGGFGGGFAAGFVDFGACD [G15A], the protein stability index is 1.2.

In the case of YGGGLGGGFGGGFAQGFVDFGACD [G15Q], the protein stability index worked out at 2.07.

As for YGGGLGGGFGGGFAHGFVDFGACD [G15H], the protein stability index is 1.65.

Regarding YGGGLGGGFGGGFAEGFVDFGACD [G15E], the protein stability index was found to be 1.89.

With YGGGLGGGFMGGFAGGFVDFGACD [G10M], the protein stability index worked out at 3.61.

For the variant YGGGLGGGFAGGFAGGFVDFGACD [G10A], the protein stability index is 2.01.

As to YGGGLGGGFKGGFAGGFVDFGACD [G10K], the protein stability index came out at 1.53.

Regarding YGGGLGGGFIGGFAGGFVDFGACD [G10I], the protein stability index came to 1.58.

As to YGGFLGGGFGGGFAGGFVDFGACD [G4F], the protein stability index amounted to 1.7.

For the variant YGGHLGGGFGGGFAGGFVDFGACD [G4H], the protein stability index is 1.6.

Take YGGKLGGGFGGGFAGGFVDFGACD [G4K]: the protein stability index stood at 2.84.

Consider YGGELGGGFGGGFAGGFVDFGACD [G4E], for which the protein stability index amounted to 1.95.

YGGQLGGGFGGGFAGGFVDFGACD [G4Q]: the protein stability index worked out at 1.68.

As for YGGMLGGGFGGGFAGGFVDFGACD [G4M], the protein stability index came to 1.21.

Take YGGSLGGGFGGGFAGGFVDFGACD [G4S]: the protein stability index came out at 2.42.

In the case of YGGNLGGGFGGGFAGGFVDFGACD [G4N], the protein stability index came to 1.8.

Turning to YGGWLGGGFGGGFAGGFVDFGACD [G4W], the protein stability index came out at 2.33.

Consider YVGGLGGGFGGGFAGGFVDFGACD [G2V], for which the protein stability index was determined as 3.25.

Turning to YNGGLGGGFGGGFAGGFVDFGACD [G2N], the protein stability index worked out at 2.23.

In the case of YRGGLGGGFGGGFAGGFVDFGACD [G2R], the protein stability index was determined as 2.33.

For YGRGLGGGFGGGFAGGFVDFGACD [G3R], the protein stability index stood at 2.27.

Take YGAGLGGGFGGGFAGGFVDFGACD [G3A]: the protein stability index came to 1.77.

Regarding YGYGLGGGFGGGFAGGFVDFGACD [G3Y], the protein stability index amounted to 1.21.

Turning to YGGGLGGGFGGGFAGGHVDFGACD [F17H], the protein stability index was 2.06.

In the case of YGGGLGGGFGGGFAGGLVDFGACD [F17L], the protein stability index is 1.09.

Consider YGGGLGGGFGGGFAGGKVDFGACD [F17K], for which the protein stability index amounted to 1.96.

Regarding YGGGLGGGFGGGFAGGEVDFGACD [F17E], the protein stability index was 2.44.

On to YGGGLGGGFGGGFAGGIVDFGACD [F17I], for which the protein stability index is 1.23.

On to YGGGLGGGFGGGFAGGAVDFGACD [F17A], for which the protein stability index was found to be 2.07.

For YGGGLGGGFGGGFAGGYVDFGACD [F17Y], the protein stability index was determined as 2.01.

YGGGLGGGFGGGFAGGGVDFGACD [F17G]: the protein stability index was 1.68.

For YGGGLGGGFGIGFAGGFVDFGACD [G11I], the protein stability index stood at 3.54.

For YGGGLGGGFGTGFAGGFVDFGACD [G11T], the protein stability index came out at 1.84.

For YGGGLGGGFGLGFAGGFVDFGACD [G11L], the protein stability index was found to be 3.08.

YGGGLGGGFGNGFAGGFVDFGACD [G11N]: the protein stability index stood at 2.43.

Regarding YGGGLGGGFGEGFAGGFVDFGACD [G11E], the protein stability index was found to be 2.12.

As for YGGGLGGGFGHGFAGGFVDFGACD [G11H], the protein stability index was 1.75.

As for YGGGLGGGFGQGFAGGFVDFGACD [G11Q], the protein stability index is 1.73.

As for YGGGLAGGFGGGFAGGFVDFGACD [G6A], the protein stability index worked out at 2.4.

Regarding YGGGLCGGFGGGFAGGFVDFGACD [G6C], the protein stability index was 2.27.

With YGGGLFGGFGGGFAGGFVDFGACD [G6F], the protein stability index was 1.68.

Take YGGGLIGGFGGGFAGGFVDFGACD [G6I]: the protein stability index was 3.11.

As to YGGGLDGGFGGGFAGGFVDFGACD [G6D], the protein stability index was 1.89.

Consider YGGGLTGGFGGGFAGGFVDFGACD [G6T], for which the protein stability index was determined as 2.19.

On to YGGGLVGGFGGGFAGGFVDFGACD [G6V], for which the protein stability index worked out at 2.12.

As for YGGGLWGGFGGGFAGGFVDFGACD [G6W], the protein stability index turned out to be 3.1.

With YGGGLMGGFGGGFAGGFVDFGACD [G6M], the protein stability index came to 1.81.

For the variant YGGGLGGGFGGGFAGGFVDFDACD [G21D], the protein stability index turned out to be 1.92.

In the case of YGGGLGGGFGGGFAGGFVDFIACD [G21I], the protein stability index worked out at 1.99.

In the case of YGGGLGGGFGGGFAGGFVDFHACD [G21H], the protein stability index stood at 1.93.

Turning to YGGGLGGGFGGGFAGGFVDFNACD [G21N], the protein stability index was determined as 1.68.

For YGGGLGGGFGGGFAGGFVDFTACD [G21T], the protein stability index worked out at 2.69.

YGGGLGGGFGGGGAGGFVDFGACD [F13G]: the protein stability index was found to be 2.08.

Take YGGGLGGGFGGGMAGGFVDFGACD [F13M]: the protein stability index turned out to be 2.28.

Turning to YGGGLGGGFGGGTAGGFVDFGACD [F13T], the protein stability index is 2.07.

For YGGGLGGGFGGGPAGGFVDFGACD [F13P], the protein stability index is 2.09.

In the case of YGGGLGGGFGGGAAGGFVDFGACD [F13A], the protein stability index stood at 1.55.

For the variant YGGGLGGGFGGGHAGGFVDFGACD [F13H], the protein stability index stood at 2.44.

On to YGGGLGGGFGGGKAGGFVDFGACD [F13K], for which the protein stability index was found to be 2.25.

For the variant YGGGLGGGFGGGRAGGFVDFGACD [F13R], the protein stability index turned out to be 1.77.

In the next data set the parent is B2. Described as above. The settings on record: c terminus: a fixed tail appended.
With KRFAPNHTKELEDKVIELHKSHRG [F1K], the protein stability index came to 4.35.

Take SRFAPNHTKELEDKVIELHKSHRG [F1S]: the protein stability index amounted to 4.58.

Take YRFAPNHTKELEDKVIELHKSHRG [F1Y]: the protein stability index amounted to 3.73.

With ERFAPNHTKELEDKVIELHKSHRG [F1E], the protein stability index came out at 4.2.

In the case of WRFAPNHTKELEDKVIELHKSHRG [F1W], the protein stability index was 2.26.

Consider NRFAPNHTKELEDKVIELHKSHRG [F1N], for which the protein stability index was determined as 3.62.

Take VRFAPNHTKELEDKVIELHKSHRG [F1V]: the protein stability index stood at 3.08.

On to LRFAPNHTKELEDKVIELHKSHRG [F1L], for which the protein stability index was 3.78.

Consider MRFAPNHTKELEDKVIELHKSHRG [F1M], for which the protein stability index was 3.68.

In the case of HRFAPNHTKELEDKVIELHKSHRG [F1H], the protein stability index stood at 4.62.

ARFAPNHTKELEDKVIELHKSHRG [F1A]: the protein stability index was 4.17.

As for PRFAPNHTKELEDKVIELHKSHRG [F1P], the protein stability index stood at 3.99.

In the case of GRFAPNHTKELEDKVIELHKSHRG [F1G], the protein stability index is 3.6.

On to QRFAPNHTKELEDKVIELHKSHRG [F1Q], for which the protein stability index worked out at 3.89.

DRFAPNHTKELEDKVIELHKSHRG [F1D]: the protein stability index was 4.4.

In the case of IRFAPNHTKELEDKVIELHKSHRG [F1I], the protein stability index amounted to 2.69.

Turning to RRFAPNHTKELEDKVIELHKSHRG [F1R], the protein stability index amounted to 4.41.

For CRFAPNHTKELEDKVIELHKSHRG [F1C], the protein stability index came to 2.93.

With TRFAPNHTKELEDKVIELHKSHRG [F1T], the protein stability index stood at 4.12.

For the variant FEFAPNHTKELEDKVIELHKSHRG [R2E], the protein stability index was 4.02.

As to FAFAPNHTKELEDKVIELHKSHRG [R2A], the protein stability index came out at 3.49.

With FKFAPNHTKELEDKVIELHKSHRG [R2K], the protein stability index amounted to 3.81.

As to FMFAPNHTKELEDKVIELHKSHRG [R2M], the protein stability index was found to be 2.89.

With FLFAPNHTKELEDKVIELHKSHRG [R2L], the protein stability index turned out to be 2.78.

FNFAPNHTKELEDKVIELHKSHRG [R2N]: the protein stability index came to 3.96.

On to FDFAPNHTKELEDKVIELHKSHRG [R2D], for which the protein stability index came out at 3.5.

On to FHFAPNHTKELEDKVIELHKSHRG [R2H], for which the protein stability index was 2.01.

FGFAPNHTKELEDKVIELHKSHRG [R2G]: the protein stability index worked out at 3.94.

As to FFFAPNHTKELEDKVIELHKSHRG [R2F], the protein stability index came out at 2.81.

On to FIFAPNHTKELEDKVIELHKSHRG [R2I], for which the protein stability index is 2.03.

On to FCFAPNHTKELEDKVIELHKSHRG [R2C], for which the protein stability index stood at 3.36.

As to FPFAPNHTKELEDKVIELHKSHRG [R2P], the protein stability index was determined as 3.82.

The values are drawn from the supplement of paper PMC10567573.
